In series [1] the test system is U2AF1alpha;U2AF2beta (Fritillaria borealis;Fritillaria borealis). Put plainly: EMSA. The note with it: 330 nM U2AF; never exceeded 5% bound; EMSA: 20 mM Hepes, 0.1 M NaCl, 5% glycerol, 0.5% Tween-20, pH 7.8, 50 ng/ul BSA, 0.5 mM TCEP, 0.5 mM EDTA; 1 h on ice; 6% PAGE 0.5x TBE at 4 C.
For series [2], the system named is U2AF1beta;U2AF2beta (Fritillaria borealis;Fritillaria borealis). Put plainly: EMSA. The following applies: 330 nM U2AF; never exceeded 5% bound; EMSA: 20 mM Hepes, 0.1 M NaCl, 5% glycerol, 0.5% Tween-20, pH 7.8, 50 ng/ul BSA, 0.5 mM TCEP, 0.5 mM EDTA; 1 h on ice; 6% PAGE 0.5x TBE at 4 C.

As to “GGGCUGUCCUCUUUUUUUUUUCAGGCGUCU [ORN.PyU]”, the binding signal in series [1] and in series [2] was below 5 % bound each time.

With GGGUCGCUUCUCCCCCCCCCUAGGCGUCU [ORN.PyC], the binding signal in series [1] and in series [2] was below 5 % bound in each case.

The record behind these values is article PMC13326754.
